Molecular target: T1, VEGF (biotinylated target on streptavidin BLI probe) (UniProt P15692-4 27-191, limits assumed, biotin (site not stated))
T1 construct: also called vascular endothelial growth factor
Assay: binding kinetics, Kd (nM); Example 6 describes BLI on biotinylated target

T1 sequence (P15692 other isoform, or with tags, fused parts or gaps limits assumed): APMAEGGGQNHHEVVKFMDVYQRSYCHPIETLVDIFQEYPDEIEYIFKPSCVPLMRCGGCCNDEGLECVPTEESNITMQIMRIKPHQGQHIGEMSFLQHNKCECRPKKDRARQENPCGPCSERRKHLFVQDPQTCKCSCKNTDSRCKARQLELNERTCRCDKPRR

Kd: 29.3 nM
B1: G5-1 (VHH)
VHH: EVQLQASGGGFVQPGGSLRLSCAASGSTYANYVMGWFRQAPGKEREFVSAISAFNDEVLYYADSVKGRFTISRDNSKNTVYLQMNSLRAEDTATYYCARAGQEEASKNAPGQEPVRYWGQGTQVTVSS
notes: unconjugated comparator of conjugates 24 and 25; also called G5-1 aVEGF VHH, unconjugated; G5-1 alone
